Experimental data as given in US20150376286A1 (Amgen, published 2015).

T1: cynomolgus CGRP receptor (cynoCRLR + cynoRAMP1) (cynomolgus monkey)
T1 chain 1: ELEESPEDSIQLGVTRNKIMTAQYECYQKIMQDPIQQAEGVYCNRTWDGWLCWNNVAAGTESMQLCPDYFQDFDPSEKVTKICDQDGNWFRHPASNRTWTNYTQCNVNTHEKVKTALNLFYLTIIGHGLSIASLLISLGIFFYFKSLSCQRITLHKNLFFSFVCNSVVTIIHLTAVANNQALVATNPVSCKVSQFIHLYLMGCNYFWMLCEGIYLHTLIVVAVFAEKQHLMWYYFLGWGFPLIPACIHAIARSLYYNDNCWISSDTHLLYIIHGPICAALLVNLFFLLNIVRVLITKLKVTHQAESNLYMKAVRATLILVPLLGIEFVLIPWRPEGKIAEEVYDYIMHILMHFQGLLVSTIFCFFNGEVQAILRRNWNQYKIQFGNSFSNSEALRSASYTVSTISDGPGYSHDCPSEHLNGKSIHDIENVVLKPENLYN
T1 chain 2: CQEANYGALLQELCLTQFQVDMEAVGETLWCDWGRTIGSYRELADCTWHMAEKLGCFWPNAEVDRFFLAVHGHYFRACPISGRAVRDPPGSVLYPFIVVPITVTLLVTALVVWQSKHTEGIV

T2: soluble CGRP receptor-muFc fusion protein (human)
T2 construct: also called CGRP R-muFc; not shown: mouse Fc
T2 chain 1: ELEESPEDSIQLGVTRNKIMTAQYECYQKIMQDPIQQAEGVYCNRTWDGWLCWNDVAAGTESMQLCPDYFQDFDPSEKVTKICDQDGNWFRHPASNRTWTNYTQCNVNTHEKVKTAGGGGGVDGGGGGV
T2 chain 2: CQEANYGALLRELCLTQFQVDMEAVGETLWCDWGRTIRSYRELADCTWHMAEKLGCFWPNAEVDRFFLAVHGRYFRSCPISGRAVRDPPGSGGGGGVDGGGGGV

T3: chimeric CGRP receptor: CRLR wt + RAMP1 chimera #3 (R67 to E78) (human; human/rat chimera, UniProt Q16602 23-461; O60894 27-148)
T3 construct: also called CRLR wt+RAMP1 R67-E78
T3 chain 1: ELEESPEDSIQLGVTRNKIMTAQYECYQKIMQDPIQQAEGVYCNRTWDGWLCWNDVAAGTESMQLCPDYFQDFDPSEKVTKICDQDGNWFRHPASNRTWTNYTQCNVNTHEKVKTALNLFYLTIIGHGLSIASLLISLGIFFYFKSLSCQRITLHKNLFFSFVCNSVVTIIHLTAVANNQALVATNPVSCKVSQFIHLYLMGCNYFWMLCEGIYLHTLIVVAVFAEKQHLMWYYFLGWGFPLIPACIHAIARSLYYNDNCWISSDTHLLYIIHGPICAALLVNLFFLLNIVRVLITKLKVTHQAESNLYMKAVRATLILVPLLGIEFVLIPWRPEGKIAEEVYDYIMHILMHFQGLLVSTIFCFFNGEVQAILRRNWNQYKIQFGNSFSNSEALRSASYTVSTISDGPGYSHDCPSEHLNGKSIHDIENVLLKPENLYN
T3 chain 2: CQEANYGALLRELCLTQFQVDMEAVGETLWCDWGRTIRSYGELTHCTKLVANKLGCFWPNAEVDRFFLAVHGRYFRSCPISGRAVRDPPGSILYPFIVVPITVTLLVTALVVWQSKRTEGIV

T4: chimeric CGRP receptor: CRLR wt + RAMP1 chimera #2 (Q43 to E53) (human; human/rat chimera, UniProt Q16602 23-461; O60894 27-148)
T4 construct: also called CRLR wt+RAMP1 Q43-E53
T4 chain 1: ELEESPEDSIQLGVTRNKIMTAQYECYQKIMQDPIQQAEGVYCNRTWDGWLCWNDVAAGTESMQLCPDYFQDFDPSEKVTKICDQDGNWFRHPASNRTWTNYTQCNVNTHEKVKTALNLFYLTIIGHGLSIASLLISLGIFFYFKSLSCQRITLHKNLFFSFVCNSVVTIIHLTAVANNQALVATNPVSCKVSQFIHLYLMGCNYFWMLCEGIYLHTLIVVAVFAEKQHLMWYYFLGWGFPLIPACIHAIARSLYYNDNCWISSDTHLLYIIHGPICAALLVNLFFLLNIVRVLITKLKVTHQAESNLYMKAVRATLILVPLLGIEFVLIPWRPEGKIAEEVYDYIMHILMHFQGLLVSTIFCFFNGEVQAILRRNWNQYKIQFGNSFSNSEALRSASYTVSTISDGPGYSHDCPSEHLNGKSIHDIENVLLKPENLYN
T4 chain 2: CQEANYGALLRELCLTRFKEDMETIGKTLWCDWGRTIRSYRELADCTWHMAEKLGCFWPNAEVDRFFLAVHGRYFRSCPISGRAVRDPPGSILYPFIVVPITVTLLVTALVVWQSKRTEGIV


Tests used:
[1] = target: T5, human CGRP receptor (CRLR + RAMP1) (human, UniProt Q16602 23-461; O60894 27-148); assay: FACS on AM-1 CHO huCGRP R cells, KinExA n-curve analysis
T5 construct: also called hCGRP R; huCGRP R
Description: (§1) Briefly, AM-1 CHO huCGRP R-expressing cells, prepared as described above, were plated in 96-well plates at densities of 16,000 or 160,000 cells per well in DMEM medium containing 10% FBS, NEAA, PS, L Glut, NaPyr and 0.05% sodium azide. […] After an overnight incubation at 4° C. in a total volume of 120 μl, on a plate shaker, the cells were washed 2× with PBS+2% FBS, centrifuging and discarding supernatant each time. 100 μl/well of G anti-Hu Fc Cy5 (5 μg/mL; Jackson ImmunoResearch Laboratories Inc., West Grove, Pa., USA) containing 7AAD (5 μl/well) was then added and incubated at 4° C. for 40 min. The cells were washed 2× with PBS+2% FBS, centrifuging and discarding the supernatant each time. 100 μl PBS+2% FBS buffer was then added and analyzed by FACS to determined the binding geomean. The Kd was calculated using KinExA software by taking the negative geomean at each antibody concentration as the amount of free Ab present Rathanaswami, et al., Biochemical and Biophysical Research Communications 334 (2005) 1004-1013.

[2] = target: T5, human CGRP receptor (CRLR + RAMP1); assay: FACS Kd determination on AM-1 CHO huCGRP R cells; right-hand curve, cell density not labelled on the sheet
Description: as §1

[3] = target: T5, human CGRP receptor (CRLR + RAMP1); assay: FACS Kd determination on AM-1 CHO huCGRP R cells; left-hand curve, cell density not labelled on the sheet
Description: as §1

rat CGRP receptor = rat CGRP receptor (rat, UniProt Q63118 24-464; Q9JJ74 27-148); assay: cell-based or functional assay
[4] = target: human adrenomedullin receptor 2 (hCRLR + hRAMP3) (human, UniProt O60896 24-148); assay: cell-based or functional assay
[5] = target: T5, human CGRP receptor (CRLR + RAMP1); assay: cell-based or functional assay
[6] = target: human amylin AMY1 receptor (hCTR + hRAMP1) (human, UniProt P30988 25-474); assay: cell-based or functional assay
[7] = target: human adrenomedullin receptor 1 (hCRLR + hRAMP2) (human, UniProt O60895 43-175); assay: cell-based or functional assay
[8] = target: T1, cynomolgus CGRP receptor (cynoCRLR + …); assay: cell-based or functional assay
[9] = target: T5, human CGRP receptor (CRLR + RAMP1); assay: 125I-CGRP competition binding, HTB-10 cell membranes
Description: The plates were incubated at room temperature for 2 hours with shaking at 60 rpm, and then the contents of each well were filtered over 0.5% polyethyleneimine (PEI)-treated (for at least one hour) GF/C 96-well filter plates. The GF/C filter plates were washed six times with ice-cold 50 mM Tris, pH 7.5 and dried in an oven at 55° C. for 1 hour. The bottoms of the GF/C plates were then sealed. 40 μl Microscint™ 20 was added to each well, the tops of the GF/C plates were sealed with TopSeal™-A (a press-on adhesive sealing film), and the GF/C plates were counted with TopCount NXT (Packard). The data were analyzed using Prizm (GraphPad Software Inc.)

[10] = target: T2, soluble CGRP receptor-muFc fusion …; assay: Western blot
Description: The sample containing βME was then boiled for 4 min. […] Gels were electroblotted onto 0.2 μm nitrocellulose filters (Invitrogen). The blots were washed with Tris-buffered saline+1% Tween 20 (TBST) and then blocked with TBST+5% powered dry milk for 30 min. The blots were cut into strips along the molecular weight marker lanes. […] Blots were incubated with the antibodies for one hour followed by 3×10 min washes with TBST+1% milk. The blots treated with the huCGRP R antibodies were then incubated with goat anti-mouse IgG-Fc-HRP (1:10,000 in TBST+1% milk) and the blots treated with anti-huRAMP1 (N-20 anti-RAMP1 goat polyclonal antibody, Santa Cruz Biotech, CA) were incubated with rabbit anti-goat IgG-Fc-HRP (1:10,000) for 20 min. Blots were washed 3×15 min with TBST. The huCGRP R and anti-huRAMP1 antibody blots were treated with Pierce Supersignal West Pico Detection reagent, and the anti-mouse and anti-human IgG-Fc-HRP blots were treated with Pierce standard Detection Reagent (1 min.). Blots were then exposed with Kodak Biomax MS X-ray film.

[11] = target: T3, chimeric CGRP receptor: CRLR wt + RAMP1 …; assay: FACS on transfected 293-6E cells
Description: (§2) Cells were harvested after 72 hr, washed with PBS+0.5% BSA, and counted. Each transfected cell line was resuspended at a dilution of 5×10⁵ cells per 100 μl PBS/BSA. 100 μl of cell suspension was aliquot per well in a 96-well round-bottom plate (Falcon). The cells were pelleted at 1200 rpm for 5 min. […] Cells were incubated on ice for 1 hr. and then washed twice with PBS/BSA. […] Cells were incubated on ice in the dark for 1 hr. and then washed twice with PBS/BSA. Cells were resuspended in 200 μl PBS/BSA and analyzed using a FACS Calibur.

[12] = target: T5, human CGRP receptor (CRLR + RAMP1); assay: FACS on transfected 293-6E cells
Description: as §2

[13] = target: T4, chimeric CGRP receptor: CRLR wt + RAMP1 …; assay: FACS on transfected 293-6E cells
Description: as §2

[14] = target: T6, chimeric CGRP receptor: CRLR chimera #1 (L24 to Q33) + RAMP1 wt (human/rat chimera; human, UniProt Q16602 1-461; O60894 27-148); assay: FACS on transfected 293-6E cells
T6 construct: also called CRLR L24-Q33+RAMP wt
Description: as §2

Row | Binder | Kd [1] [nM] | EC50 (read off the curve) [2] [nM] | EC50 (read off the curve) [3] [nM] | cAMP assay IC50 (rat CGRP receptor) [nM] | cAMP assay IC50 [4] [nM] | cAMP assay IC50 [5] [nM] | cAMP assay IC50 [6] [nM] | cAMP assay IC50 [7] [nM] | cAMP assay IC50 [8] [nM] | Ki [9] [nM] | binding result [10] | binding result [11] | binding result [12] | binding result [13] | binding result [14]
1 | 12G8 (antibody, human IgG2, lambda, V domains shown, also called 12G8.2) VH: QVQLVESGGGVVQPGRSLRLSCAASGFTFSSFGMHWVRQAPGKGLEWVAVISFDGSIKYSVDSVKGRFTISRDNSKNTLFLQMNSLRAEDTAVYYCARDRLNYYDSSGYYHYKYYGLAVWGQGTTVTVSS VL: QSVLTQPPSVSAAPGQKVTISCSGSSSNIGNNYVSWYQQLPGTAPKLLIYDNNKRPSGIPDRFSGSKSGTSATLGITGLQTGDEADYYCGTWDSRLSAVVFGGGTKLTVLG | 1.4 | ~8 | ~2 | > 1000 | > 1000 | 2.14 | > 1000 | > 1000 | 2.74 | 0.017 |  |  |  |  | 
2 | 4E4 (antibody, human IgG2, lambda, V domains shown, also called 04E4; 04E4.2) VH: QVQLVESGGGVVQPGRSLRLSCAASGFTFSSFGMHWVRQAPGKGLEWVAVISFDGSIKYSVDSVKGRFTISRDNSKNTLFLQMNSLRAEDTAVYYCARDRLNYYDSSGYYHYKYYGMAVWGQGTTVTVSS VL: QSVLTQPPSVSAAPGQKVTISCSGSSSNIGNNYVSWYQQLPGTAPKLLIYDNNKRPSGIPDRFSGSKSGTSTTLGITGLQTGDEADYYCGTWDSRLSAVVFGGGTKLTVLG |  |  |  | > 1000 | > 1000 |  | > 1000 | > 1000 | 3.52 |  | binds |  |  |  | 
3 | 33B5 (antibody, V domains shown) VH: not shown VL: DIQMTQSPSSLSASVGDRVTITCRASQGIRNDLGWYQQKPGKAPKRLIYVASSLQSGVPSRFSGSGSGTEFTLTISSLQPEDFATYYCLQYNTYPLTFGGGTKVEIK |  |  |  |  |  |  |  |  |  |  |  | binds | binds | binds | binds
4 | 3B6 (antibody, human IgG2, lambda, V domains shown, also called 03B6; 03B6.2) VH: not shown VL: SSELTQDPTVSVALGQTVKITCQGDSLRSFYASWYQQKPGQAPVLVFYGKNNRPSGIPDRFSGSSSGNTASLTITGAQAEDEADYYCNSRDSSVYHLVLGGGTKLTVLG |  |  |  | > 1000 | > 1000 |  | > 1000 | > 1000 | 2.22 |  | binds |  |  |  | 
